# From patent EP4644412A1
# Target: TPO receptor (TPOR)
# Test: cell-based or functional assay
substance,measurement,value
Human TPO synthetic protein (rhTPO) (from UniProt P40225 22-353) (ligand),"EC50 of relative cell proliferation of BaF3/MPL cells (Cell Titer-Glo, 48 h)",1.7 ng/mL
